Residue numbers refer to the chain shown, from its start. Names may count otherwise.
T1: mature myostatin (human, murine, rat, chicken, turkey, …, UniProt O08689 268-376 (mouse entry))
T1 construct: also called growth differentiation factor-8; GDF-8
T1 sequence: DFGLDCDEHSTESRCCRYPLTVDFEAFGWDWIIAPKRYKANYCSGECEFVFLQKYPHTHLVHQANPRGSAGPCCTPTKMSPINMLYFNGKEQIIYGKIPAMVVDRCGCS

B1: C12 Fab with the Asn residue in CDRL3 replaced with R (Fab, V domains shown)
VH: QLQLQESGPGLVKPSETLSLTCTVSGFSLRKVGSSVSWIRQPPGKGLEWIGHIYWDDDKRLNPSLRNRVTISVDTSKNQFSLKLSSVTAADTAVYYCARRAITTVIGGGTFDLWGQGTLVTVSS
VL: DIQMTQSPSSLSASVGDRVTITCSASSSISYMHWYQQKPGKAPKLLIYDTSKLARGVPSRFSGSGSGTDFTLTISSLQPEDFATYYCQQWYLRPLTFGGGTKVEIKR
notes: Periprep Fab
B2: Mab C12 (antibody, V domains shown)
VH: B1 VH
VL: B1 VL with R93N
B3: C12-N93H (antibody, human IgG4 S228P, kappa, V domains shown)
VH: B1 VH
VL: B1 VL with R93H
B4: C12 Fab with the Asn residue in CDRL3 replaced with valine (Fab, V domains shown)
VH: B1 VH
VL: B1 VL with R93V
notes: Periprep Fab
B5: C12 Fab with the Asn residue in CDRL3 replaced with serine (Fab, V domains shown)
VH: B1 VH
VL: B1 VL with R93S
notes: Periprep Fab
B6: C12 Fab with the Asn residue in CDRL3 replaced with tyrosine (Fab, V domains shown)
VH: B1 VH
VL: B1 VL with R93Y
notes: Periprep Fab
B7: C12 Fab with the Asn residue in CDRL3 replaced with threonine (Fab, V domains shown)
VH: B1 VH
VL: B1 VL with R93T
notes: Periprep Fab
B8: C12 Fab with the Asn residue in CDRL3 replaced with leucine (Fab, V domains shown)
VH: B1 VH
VL: B1 VL with R93L
notes: Periprep Fab
B9: C12 Fab with the Asn residue in CDRL3 replaced with phenylalanine (Fab, V domains shown)
VH: B1 VH
VL: B1 VL with R93F
notes: Periprep Fab
B10: C12 Fab with the Asn residue in CDRL3 replaced with isoleucine (Fab, V domains shown)
VH: B1 VH
VL: B1 VL with R93I
notes: Periprep Fab
B11: C12 Fab with the Asn residue in CDRL3 replaced with aspartic acid (Fab, V domains shown)
VH: B1 VH
VL: B1 VL with R93D
notes: Periprep Fab
B12: C12 Fab with the Asn residue in CDRL3 replaced with glycine (Fab, V domains shown)
VH: B1 VH
VL: B1 VL with R93G
notes: Periprep Fab
B13: C12 Fab with the Asn residue in CDRL3 replaced with lysine (Fab, V domains shown)
VH: B1 VH
VL: B1 VL with R93K
notes: Periprep Fab
B14: C12 Fab with the Asn residue in CDRL3 replaced with proline (Fab, V domains shown)
VH: B1 VH
VL: B1 VL with R93P
notes: Periprep Fab
B15: C12 Fab with the Asn residue in CDRL3 replaced with tryptophan (Fab, V domains shown)
VH: B1 VH
VL: B1 VL with R93W
notes: Periprep Fab
B16: C12 Fab with the Asn residue in CDRL3 replaced with cysteine (Fab, V domains shown)
VH: B1 VH
VL: B1 VL with R93C
notes: Periprep Fab
B17: C12 Fab with the Asn residue in CDRL3 replaced with glutamic acid (Fab, V domains shown)
VH: B1 VH
VL: B1 VL with R93E
notes: Periprep Fab
B18: C12 Fab with the Asn residue in CDRL3 replaced with glutamine (Fab, V domains shown)
VH: B1 VH
VL: B1 VL with R93Q
notes: Periprep Fab
B19: C12 Fab with the Asn residue in CDRL3 replaced with alanine (Fab, V domains shown)
VH: B1 VH
VL: B1 VL with R93A
notes: Periprep Fab
B20: C12 Fab with the Asn residue in CDRL3 replaced with methionine (Fab, V domains shown)
VH: B1 VH
VL: B1 VL with R93M
notes: Periprep Fab

biological target: T1, mature myostatin; test: ELISA on plate-coated myostatin, periprep Fab in serial dilution, detection with goat anti-human-kappa-AP, O.D. against Fab concentration (ng/ml)
Method: (§1) ELISA plates are coated with myostatin diluted to 4 ug/ml in carbonate buffer (50 mM NaHCO₃ pH 8.3) and 50 μL added per well. Plates are covered with sealing tape and incubate overnight at 4° C. Thereafter, plates (Greiner U-bottom plates Cat #650061) are washed three times with PBS-T (0.1% Tween-20) using an automatic plate washer. 200 μL of blocking buffer (PBS+1% BSA+0.1% Tween-20) is added to every well and incubated at room temperature for one hour. Plates are washed and 50 μl of sample added per well. Samples are composed of periprep Fabs diluted in PBST/BSA starting at a 1:3 dilution and then serially diluted in half-log steps. Plates are washed and 50 μL of secondary antibody solution (1:2000 goat anti-human-kappa-AP Southern Biotech Cat # 2060-04 in PBST/BSA) is added to every well. Following an additional wash step, 100 μL of AP substrate is added per well and incubates at room temperature for about 10 minutes. The absorbance or OD at 560 nm is read. C12 or 510C2 is included on each ELISA plate as an affinity reference standard. The concentration of Fabs is determined by a quantitative ELISA using an anti-Fd antibody (Sheep anti-Fd Biodesign) to capture protein and goat anti-human-kappa-AP (Southern Biotech) to detect. A purified Fab standard is run on each plate to generate a standard curve for the concentration determinations.

Row | binding result | Binder
1 | binds | B1

biological target: T1, mature myostatin; test: cell-based or functional assay

Row | IC50 in the myostatin/SBE reporter assay (luciferase, HEK293 EBNA cells) [nM] | Binder
2 | ~9.59 | B2
3 | ~7.03 | B3

biological target: T1, mature myostatin; test: ELISA, myostatin coated, periprep Fab titrated, anti-human-kappa-AP
Method: as §1

Row | binding result | Binder
4 | binds | B4
5 | binds | B5
6 | binds | B6
7 | binds | B7
8 | binds | B8
9 | binds | B9
10 | binds | B10
11 | binds | B11
12 | binds | B12
13 | binds | B13
14 | binds | B14
15 | binds | B15
16 | binds | B16
17 | binds | B17
18 | binds | B18
19 | binds | B19
20 | binds | B20
